For orientation: Kd means the constant that tells how readily two partners part at equilibrium. A higher Kd goes with weaker binding. One may read the koff as the rate constant with which the complex falls apart. Low values mean a long-lived complex, high ones a short-lived complex. The term kon denotes the rate constant with which the complex forms. Broadly, the t½ is how long it takes for the measured level to halve. The low end stands for rapid decline, the high end for slow decline.

Experiment [1] deals with T1, Hazel (Cor A 1, MyBiosource, Cat# MBS5304600) (Hazel, UniProt Q08407 2-160, limits assumed).
T1 construct: Bought reagent
T1 sequence (looked up): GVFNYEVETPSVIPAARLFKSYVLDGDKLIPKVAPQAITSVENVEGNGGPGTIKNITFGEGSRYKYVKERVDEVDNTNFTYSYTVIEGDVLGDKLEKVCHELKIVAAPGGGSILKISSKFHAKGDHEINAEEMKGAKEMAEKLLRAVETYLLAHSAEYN
Briefly: SPR Biacore 4000, mAb captured by anti-human Fc, 25 C.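 Note: allergen analyte binding to captured, purified anti-Bet v 1 monoclonal antibodies, SPR in HEPES-buffered saline running buffer with EDTA and Tween-20 at pH 7.4.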 A general note: In SPR one partner is held on a chip, and binding of the other changes the refractive index at the surface.

For experiment [2], the target named is T2, natural Bet v 1 (Betula verrucosa (Betula pendula), UniProt P15494 2-160).
T2 construct: Bought natural protein; also called nBet v 1
T2 chain: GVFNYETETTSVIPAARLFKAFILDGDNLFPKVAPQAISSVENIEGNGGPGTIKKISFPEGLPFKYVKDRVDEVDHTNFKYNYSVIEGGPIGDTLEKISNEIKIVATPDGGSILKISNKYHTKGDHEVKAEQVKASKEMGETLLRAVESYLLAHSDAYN
The experiment is described as follows: SPR Biacore 4000, mAb captured on anti-human Fc, 25C.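 Note: purified anti-Bet v 1 mAbs probed with natural Bet v 1 in HBS-ET buffer (HEPES, NaCl, EDTA, Tween-20) at pH 7.4.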

The target of experiment [3] is T2, natural Bet v 1. The experiment is described as follows: SPR Biacore 4000, mAb captured on anti-human Fc, 37C.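 Note: kinetic rate constants from SPR sensorgrams fitted to a 1:1 model with mass transport limitation, HBS-ET buffer pH 7.4, KD and t½ derived from the rate constants.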
Experiment [4] addresses T2, natural Bet v 1. The experiment is described as follows: SPR Biacore 4000, mAb captured on anti-human Fc, 37C; 37 C.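 Note: kinetic rate constants from SPR sensorgrams fitted to a 1:1 model with mass transport limitation, HBS-ET buffer pH 7.4, KD and t½ derived from the rate constants.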

B1: H4H17045P2 (antibody, human IgG4, V domains shown)
VH: EVQLVESGGGLVQPGVSLRLSCVASGFTFSNYDITWIRQIPGKGLEWVSRISGSGGSTYFADSVKGRFIISRDNSKNTVYMQMNSLRAEDSAVYYCARRDSVLFSMNSWLDPWGQGTLVTVSS
VL: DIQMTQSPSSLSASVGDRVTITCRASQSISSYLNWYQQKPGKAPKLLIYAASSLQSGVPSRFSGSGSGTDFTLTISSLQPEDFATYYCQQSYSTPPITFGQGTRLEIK
notes: Fully human antibody with human IgG4 Fc (H4H prefix)
With B1, in experiment [1], the “100 nM Analyte Bound (RU)” value came to 0 RU and the binding result is “no binding (tested: 100 nM)”.

B2: H4H17028P (antibody, human IgG4, V domains shown)
VH: QVQLVESGGGVVQPGRSLRLSCAASGFTFSRYAIHWVRQAPGKGLEWVAVISYDGDDKYYGDSVKGRFTISRDNSKTMVYLHMNSLRTEDTAVYYCAKDGYSLYGKDYFDYWGQGTLVTVSS
VL: EIVLTQSPGTLPLSPGERATLSCRASQSITNSYLAWYQQKPDQAPRLLIYGASSRATGIPDRFSGSESGTDFTLTISRLEPEDFAVYYCQQYVRSPWTFGQGTKVEIK
notes: as for B1
B2: in experiment [1], the “100 nM Analyte Bound (RU)” value came to 0 RU and the binding result was “no binding (tested: 100 nM)”.

B3: H4H17033P (antibody, human IgG4, V domains shown)
VH: QVQLVQSGAEVKKPGASVKVSCKASGYTFAAHYMHWVRQAPGQGLEWMGWINTYTGGTNYGQKFQGRVTMTRDTSITTAYMELSRLRSDDTAVYYCARDRRNWNFVFEYWGQGTLVTVSS
VL: DIQMTQSPSSLSASVGDRVTISCRASQNIKNYLNWYQQKPGKAPKLLIYEASNLQSGAPSRFSGSGSGTDFTLTISSLEPEDFATYYCQQSFSIPWTFGQGTKVEIK
notes: as for B1
Turning to B3, in experiment [1], the “100 nM Analyte Bound (RU)” value was 0 RU and the binding result is “no binding (tested: 100 nM)”.

B4: H4H17031P (antibody, human IgG4, V domains shown)
VH: QVQLQQWGAGLLKPSETLSLTCVVYGESFGNYHWNWIRQSPGKRLEWIGEINQNGHTNYNPSLKSRVTISVDTSKIQFSLRLNSVTAADTAVYFCARGHNYVNSYFGLDVWGQGTTVTVSS
VL: EIVMTQSPATLSVSPGERATLSCRTSQSVSISLAWYQRKPGQAPRLLIFGSSTRATGVPARFSGSGSGTEFTLTISSLQSEDFAVYYCQQYNNWPYTFGQGTKLEIK
B4: in the experiment with natural Bet v 1 [2], the “100 nM natural Bet v 1 Bound (RU)” value was 54 RU; the affinity, expressed as Kd, was 13.5 nM; the koff was 0.00168 s⁻¹; the kon was 124000 M⁻¹ s⁻¹. The t½ with natural Bet v 1 [2] was 6.8 min. Also, in the experiment with natural Bet v 1 [3], the “100 nM natural Bet v 1 Bound (RU)” value was found to be 63 RU and the t½ amounted to 2.1 min. For the same molecule, in the experiment with natural Bet v 1 [4], the Kd was 27.9 nM, the koff is 0.00544 s⁻¹ and the kon is ~195000 M⁻¹ s⁻¹.

B5: H4H17031P (antibody, human IgG4, V domains shown)
VH: B4 VH
VL: B4 VL
notes: as for B1
As for B5, in experiment [1], the “100 nM Analyte Bound (RU)” value amounted to 0 RU and the binding result was “no binding (tested: 100 nM)”.

B6: H4H17038P2 (antibody, human IgG4 S228P, kappa, V domains shown)
VH: EVQLVESGGDLVQPGGSLRLSCAASGFTFSSYEMNWVRQAPGKGLEWVSFISDSSSNIYYADSVKGRFTISRDNAKKSLYLQMTSLRAEDTAVYYCAREAIGSTSFDNWGQGTLVTVSS
VL: EIVMTQSPATLSVSPGERATLSCRASQSVSSSLAWYQQKPGQAPRRLIYSASTRATGIPARFSGSGSGTEFTLTISSLQSEDFAIYYCHQYNNWPLTFGGGTKVEIKR
notes: human IgG4 Fc; also called REGN5714; MAB3
For B6, in experiment [1], the “100 nM Analyte Bound (RU)” value amounted to 0 RU and the binding result is listed as “no binding (tested: 100 nM)”.

B7: H4H17067P2 (antibody, human IgG4, V domains shown)
VH: EVQLVQSGAEVKKPGESLKISCSGSGYRFTNYWIAWVRQMPGKGLEWMGLIHPDDSDIRYSPSFQGQVTFSVDKSINTAYLQWSSLKASDTAMYYCTRQDGILWSHNAWFDPWGQGTLVTVSS
VL: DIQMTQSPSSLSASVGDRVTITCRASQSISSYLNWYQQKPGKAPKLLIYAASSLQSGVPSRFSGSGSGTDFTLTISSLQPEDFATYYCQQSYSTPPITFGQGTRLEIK
notes: as for B1
Turning to B7, the “100 nM Analyte Bound (RU)” value in experiment [1] was -1 RU.

B8: H4H17027P (antibody, human IgG4, V domains shown)
VH: EVQLVESGGGLVQPGGSLRLSCAASGFTFRNYAMHWVRQAPGEGLEWVAAIYRNSDSIDYADSVKGRFTISRDNAKNSLYLQMNSLKTEDTALYYCAKDEGFLEYFDSWGQGTLVTVSS
VL: EIVLTQSPGTLSLSPGERASLSCRASQSVSSSFLAWYQQKPGQAPRLLIYGVSSRFIGIPDRFSGGGSGTDFTLTITRLEPEDFAVYYCQQYGRSPWTFGQGTKVEIK
notes: as for B1
Regarding B8, in experiment [1], the “100 nM Analyte Bound (RU)” value is 0 RU and the binding result is listed as “no binding (tested: 100 nM)”.

B9: H4H17082P2 (antibody, human IgG4 S228P, kappa, V domains shown)
VH: QVQLVQSGAEVKKPGASVKVSCKASGYTFISYNIFWVRQATGQGLDWMGWMNPFRNNAGYAQKFQGRVTVTWDTSISTAYMELSSLSSEDTAIYYCAREHGSSWGFFDYWGQGTLVTVSS
VL: not shown
notes: human IgG4 Fc; also called REGN5715; MAB2
Take B9: the “100 nM Analyte Bound (RU)” value in experiment [1] was 20 RU.
